These results are taken from patent publication US8541376B2, “Composition comprising and method of using angiopoietin-like protein 3 ANGPTL3” (Genentech, Inc., priority 2001, dated 2013).

Data set [1] deals with HMVEC. The experiment in a line: endothelial cell adhesion assay on Angptl3-coated plates. It is filed as cell-based, human. On the procedure: (§1) In order to identify potential integrins binding to Angptl3, recombinant Angptl3 proteins were coated onto 96-well flat-bottomed microtiter plates (MaxiSorp, Nunc, Denmark) overnight at 4° C. and blocked with 100 μg/ml BSA in PBS for 1 hour at 37° C. Various 293 cell lines stably transfected with different integrin heterodimers, including IIbIIIa (αIIBβ3), αvβ3, αvβ1 and αvβ5, were tested for their ability to bind Angptl3 coated plates. Cells were harvested and diluted to 10^5 cells/ml in serum-free CS-C medium containing 1% BSA, 1 mM CaCl2 and 1 mM MgCl2. Cells were preincubated with or without blocking antibodies or peptides for 15 minutes at 37° C. and then stimulated with 200 nM PMA. Cell suspensions (10^4 cells/well) were added to the coated wells and the plates were incubated at 37° C. for selected times. Non-adherent cells were removed by PBS washes and cell attachment was measured using the PNAG method of Lanndegren (Landegren, U., J. Immunol. Methods, 67:379-388 (1984)). Results are expressed at mean OD405 values of triplicate wells.
To determine whether the αvβ3 integrin was sufficient to mediate Angptl3 cell adhesion, blocking antibodies or inhibitory peptides were tested for their ability to inhibit the adhesion in the cell adhesion assay. Function blocking antibodies were added to the endothelial cells prior to incubation with the Angptl3-coated wells. […]

Data set [2] has as its system Human microvascular endothelial cells (HMVECs). In words: FACS binding of gD-tagged ligands in conditioned media to endothelial cells. As to conditions: for binding to HMVEC: conditioned media from transfected 293 cells, gD-tagged ligands, FACS. On the procedure:
Because of the structural similarities between Angptl3 and angiopoietins, Angptl3 was tested for the ability to bind, in culture, to primary endothelial cells expressing the Tie2 receptor. Human microvascular endothelial cells (HMVECs), purchased from Cell System (Kirkland, Wash.), maintained in CS-C complete medium containing 10% fetal bovine serum and mitogens according to the recommendations by the supplier, were incubated with conditioned media from transiently transfected 293 cells expressing epitope (gD)-tagged versions of Tie2 ligands angiopoietin 1 and 2 (Ang1 and Ang2), Angptl3, and angiopoietin related protein 1 (ARP1), respectively. ARP1 is a structurally related molecule, consisting of a coiled-coil and a fibrinogen-like domain but unable to bind Tie2, and was used as a negative control.
For orientation: Flow cytometry measures light scatter and fluorescence of single cells or particles in a stream.

In data set [3] the target is T1, Tie2 receptor (Homo sapiens, UniProt Q02763).
T1 construct: in conjunction with full length receptor constructs for Tie1 and Tie2, respectively; expressed in transfected cells; host or cells: 293 cells (transient transfection)
T1 sequence (Q02763 23-1124): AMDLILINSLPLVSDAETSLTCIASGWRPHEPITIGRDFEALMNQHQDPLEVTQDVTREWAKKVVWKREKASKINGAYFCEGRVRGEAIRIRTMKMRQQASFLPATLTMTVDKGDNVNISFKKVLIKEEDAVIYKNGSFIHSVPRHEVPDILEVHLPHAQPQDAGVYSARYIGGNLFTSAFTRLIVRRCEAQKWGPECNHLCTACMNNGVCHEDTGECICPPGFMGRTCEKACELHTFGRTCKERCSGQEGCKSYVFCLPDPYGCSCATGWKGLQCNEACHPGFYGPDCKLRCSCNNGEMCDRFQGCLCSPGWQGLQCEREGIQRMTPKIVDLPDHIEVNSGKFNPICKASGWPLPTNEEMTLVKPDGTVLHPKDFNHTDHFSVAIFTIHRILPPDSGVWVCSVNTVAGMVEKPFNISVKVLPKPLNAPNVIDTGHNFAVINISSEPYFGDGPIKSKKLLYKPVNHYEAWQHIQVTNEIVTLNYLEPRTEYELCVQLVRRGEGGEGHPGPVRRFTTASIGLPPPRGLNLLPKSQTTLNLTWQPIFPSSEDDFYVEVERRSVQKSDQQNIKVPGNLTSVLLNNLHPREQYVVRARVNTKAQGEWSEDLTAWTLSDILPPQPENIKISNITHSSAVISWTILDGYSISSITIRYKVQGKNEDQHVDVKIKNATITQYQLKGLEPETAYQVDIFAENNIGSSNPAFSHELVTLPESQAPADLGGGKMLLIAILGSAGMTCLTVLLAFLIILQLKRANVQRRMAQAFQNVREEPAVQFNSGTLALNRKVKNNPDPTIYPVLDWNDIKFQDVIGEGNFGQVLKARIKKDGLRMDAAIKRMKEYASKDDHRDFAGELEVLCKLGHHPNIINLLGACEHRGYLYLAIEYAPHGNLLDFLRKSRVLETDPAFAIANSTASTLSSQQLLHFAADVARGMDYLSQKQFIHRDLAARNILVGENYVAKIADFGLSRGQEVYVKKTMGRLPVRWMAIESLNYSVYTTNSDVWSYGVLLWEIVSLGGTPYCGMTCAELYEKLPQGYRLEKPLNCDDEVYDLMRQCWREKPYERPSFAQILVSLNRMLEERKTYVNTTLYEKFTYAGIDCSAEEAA
In words: co-immunoprecipitation in cotransfected 293 cells. It is filed as binding. The note with it: immunoprecipitation with anti-Tie2, anti-gD blot. On the procedure:
(§2) To test whether Tie2, the receptor for angiopoetins 1, 2 and 3 (Ang1, Ang2, and Ang3), or Tie1, an orphan receptor with high sequence homology to Tie2, bind to Angptl3, immunoprecipitation experiments were conducted using 293 cells transiently with expression vectors for epitope (gD)-tagged versions of Ang1 and Ang2, Angptl3 and ARP1 in conjunction with full length receptor constructs for Tie1 and Tie2, respectively. Whole cell extracts were prepared by lysis in RIPA buffer (1×PBS; 1% NP40; 0.5% sodium deoxycholate; 0.1% SDS; PMSF, 100 μg/ml; Aprotinin, 30 μl/ml; sodium orthovanadate, 1 μM) containing freshly added protease inhibitors. Extract was incubated with antibodies specific for Tie1 or Tie2 (Santa Cruz Biotechnology, San Diego, Calif.) and the resulting immunoprecipitate was analyzed by SDS-PAGE and immunoblotting. Specifically, proteins resolved by SDS-PAGE and blotted to PVDF membrane were incubated with antibodies against the gD tag or the Tie receptors, respectively.

Data set [4] concerns the target T2, αvβ3 integrin (Homo sapiens, UniProt P05106+P06756).
T2 construct: expressed in transfected cells
In words: adhesion of integrin-transfected 293 cell lines to Angptl3-coated plates. It is filed as cell-based. As to conditions: plates coated with 20 μg/ml hAngptl3, 4 hours; compared to cell lines expressing αIIbβ3, αvβ1, αvβ5. The protocol:
as §1

Data set [5] deals with freshly isolated murine hepatocytes. The experiment in a line: cell adhesion on protein-coated plates, hepatocytes. It is filed as cell-based, mouse. The note with it: dishes coated with recombinant mAngptl3 (FIG. 13 legend), 200 nM PMA. On the procedure:
96-well flat-bottomed plates (MaxiSorp, Nunc, Denmark) were coated overnight at 4° C. with the indicated concentrations of proteins and blocked with 3% BSA in PBS for 1 hour at 37° C. Primary human dermal endothelial cells (HMVECs) and freshly isolated murine hepatocytes that were prepared from the livers of adult C57/B16 mice using the method described in LeCouter et al (LeCouter et al., 2001) were harvested and diluted to 10^5 cells/ml in serum-free CS-C medium containing 1% BSA, 1 mM CaCl2 and 1 mM MgCl2 in the presence of 200 nM PMA. […] Cell suspensions (10^4 cells/well) were added to the coated wells and the plates were incubated at 37° C. for selected times. Non-adherent cells were removed by PBS washes and cell attachment was measured using the PNAG method of Landegren (Landegren, 1984). Results were expressed at mean OD405 values of triplicate wells.

Data set [6] deals with LFA1 (Homo sapiens, UniProt P05107+P20701). As to conditions: ELISA in vitro (Camenisch et al., 2002); cited from earlier work.
Data set [7] relates to rat cornea. In words: rat cornea in vivo angiogenesis assay. As to conditions: for angiogenic response compared to levels obtained for VEGF: Angptl3 500 ng vs VEGF 100 ng. On the procedure:
In order to test whether Angptl3 was capable to induce an in vivo angiogenic response in the rat cornea, […] pellets containing murine and human Angptl3 (500 ng) as well as human VEGF (100 ng) were implanted separately or in combination as described previously (Xin et al., J. Biol. Chem., 274:[…] (1999)). Hydron pellets containing excipient (control, murine or human Angptl3 (500 ng), VEGF (100 ng), or the combination of murine or human Angptl3 (500 ng) and VEGF (100 ng) were implanted into the corneas of 250 to 300 g male Sprague-Dawley rates. All hydron pellets contained 100 ng of sucralfate. […] Corneal whole mounts were made of the enucleated eyes and analyzed for neovascular areas using a computer-assisted image analysis (Image Pro-Plus 2.0, Silver Spring, Md.). In contrast to previous reports focusing on the effects of angiopoietin 1 and 2 when tested in the corneal angiogenesis assay (Asahara et al., Circ. […] These findings might reflect the interdependent signal transduction pathways engaged by both ligands (Byzova et al., Mol. Cell. 6:852-60 (2000)).

The target in data set [8] is Mac-1 (Homo sapiens, UniProt P05107+P11215). As to conditions: ELISA in vitro (Camenisch et al., 2002); cited from earlier work.
Chain of Mac-1 (P05107 23-769, other chains not shown): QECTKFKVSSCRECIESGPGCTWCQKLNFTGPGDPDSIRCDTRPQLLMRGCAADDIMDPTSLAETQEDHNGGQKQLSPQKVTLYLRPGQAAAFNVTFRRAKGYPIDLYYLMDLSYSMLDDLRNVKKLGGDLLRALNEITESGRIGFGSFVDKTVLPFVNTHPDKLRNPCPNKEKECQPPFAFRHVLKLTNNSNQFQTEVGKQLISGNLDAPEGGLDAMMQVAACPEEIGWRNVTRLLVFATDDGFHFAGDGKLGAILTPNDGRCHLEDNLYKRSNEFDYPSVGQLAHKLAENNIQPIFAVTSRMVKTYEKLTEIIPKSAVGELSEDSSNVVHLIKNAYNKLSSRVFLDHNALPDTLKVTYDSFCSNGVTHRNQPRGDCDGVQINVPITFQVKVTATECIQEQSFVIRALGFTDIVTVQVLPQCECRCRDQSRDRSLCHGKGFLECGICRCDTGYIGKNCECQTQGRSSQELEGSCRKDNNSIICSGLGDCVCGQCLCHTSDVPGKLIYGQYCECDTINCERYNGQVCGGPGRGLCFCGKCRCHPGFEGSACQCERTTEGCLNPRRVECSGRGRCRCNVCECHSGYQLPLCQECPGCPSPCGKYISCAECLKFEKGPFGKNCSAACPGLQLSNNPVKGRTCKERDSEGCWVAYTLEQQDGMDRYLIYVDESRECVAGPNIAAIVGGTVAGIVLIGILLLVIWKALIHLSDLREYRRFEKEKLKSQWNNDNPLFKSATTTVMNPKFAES
Data set [9] has as its target T3, Tie1 receptor (Homo sapiens, UniProt P35590).
T3 construct: in conjunction with full length receptor constructs for Tie1 and Tie2, respectively; expressed in transfected cells; host or cells: 293 cells (transient transfection)
The experiment in a line: co-immunoprecipitation in cotransfected 293 cells. It is filed as binding. As to conditions: immunoprecipitation with anti-Tie1, anti-gD blot. On the procedure:
as §2

T3 sequence (P35590 22-1138): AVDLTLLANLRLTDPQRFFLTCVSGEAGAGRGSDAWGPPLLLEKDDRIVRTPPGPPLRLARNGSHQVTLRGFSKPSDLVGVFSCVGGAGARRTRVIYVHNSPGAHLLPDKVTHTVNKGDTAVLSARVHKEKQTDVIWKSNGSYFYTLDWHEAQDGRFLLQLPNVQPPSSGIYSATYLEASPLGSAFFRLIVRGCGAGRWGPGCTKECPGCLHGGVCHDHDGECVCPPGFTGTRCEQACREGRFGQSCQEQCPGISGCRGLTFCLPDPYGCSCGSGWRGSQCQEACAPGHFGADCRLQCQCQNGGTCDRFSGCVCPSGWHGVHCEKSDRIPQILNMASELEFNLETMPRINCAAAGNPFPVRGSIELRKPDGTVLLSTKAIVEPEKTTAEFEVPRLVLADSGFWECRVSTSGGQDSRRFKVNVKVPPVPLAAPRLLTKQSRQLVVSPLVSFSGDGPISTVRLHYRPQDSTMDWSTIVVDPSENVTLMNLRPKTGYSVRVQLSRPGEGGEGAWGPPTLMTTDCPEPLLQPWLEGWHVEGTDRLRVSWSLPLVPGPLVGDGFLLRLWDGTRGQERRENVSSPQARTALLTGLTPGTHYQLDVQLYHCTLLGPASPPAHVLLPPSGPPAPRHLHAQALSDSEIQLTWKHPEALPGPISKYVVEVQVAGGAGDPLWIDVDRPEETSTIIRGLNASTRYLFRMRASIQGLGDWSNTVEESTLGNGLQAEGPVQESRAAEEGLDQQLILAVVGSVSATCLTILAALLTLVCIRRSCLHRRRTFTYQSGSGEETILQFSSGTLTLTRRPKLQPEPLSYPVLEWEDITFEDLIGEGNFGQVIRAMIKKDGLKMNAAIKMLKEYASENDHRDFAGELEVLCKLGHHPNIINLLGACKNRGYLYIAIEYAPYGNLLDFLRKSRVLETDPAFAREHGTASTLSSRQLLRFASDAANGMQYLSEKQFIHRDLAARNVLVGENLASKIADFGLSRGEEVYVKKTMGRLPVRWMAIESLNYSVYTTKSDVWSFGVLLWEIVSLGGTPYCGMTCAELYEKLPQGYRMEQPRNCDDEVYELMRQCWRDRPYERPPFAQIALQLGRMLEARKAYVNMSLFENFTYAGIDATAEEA
T2 sequence (P06756 31-889 limits assumed): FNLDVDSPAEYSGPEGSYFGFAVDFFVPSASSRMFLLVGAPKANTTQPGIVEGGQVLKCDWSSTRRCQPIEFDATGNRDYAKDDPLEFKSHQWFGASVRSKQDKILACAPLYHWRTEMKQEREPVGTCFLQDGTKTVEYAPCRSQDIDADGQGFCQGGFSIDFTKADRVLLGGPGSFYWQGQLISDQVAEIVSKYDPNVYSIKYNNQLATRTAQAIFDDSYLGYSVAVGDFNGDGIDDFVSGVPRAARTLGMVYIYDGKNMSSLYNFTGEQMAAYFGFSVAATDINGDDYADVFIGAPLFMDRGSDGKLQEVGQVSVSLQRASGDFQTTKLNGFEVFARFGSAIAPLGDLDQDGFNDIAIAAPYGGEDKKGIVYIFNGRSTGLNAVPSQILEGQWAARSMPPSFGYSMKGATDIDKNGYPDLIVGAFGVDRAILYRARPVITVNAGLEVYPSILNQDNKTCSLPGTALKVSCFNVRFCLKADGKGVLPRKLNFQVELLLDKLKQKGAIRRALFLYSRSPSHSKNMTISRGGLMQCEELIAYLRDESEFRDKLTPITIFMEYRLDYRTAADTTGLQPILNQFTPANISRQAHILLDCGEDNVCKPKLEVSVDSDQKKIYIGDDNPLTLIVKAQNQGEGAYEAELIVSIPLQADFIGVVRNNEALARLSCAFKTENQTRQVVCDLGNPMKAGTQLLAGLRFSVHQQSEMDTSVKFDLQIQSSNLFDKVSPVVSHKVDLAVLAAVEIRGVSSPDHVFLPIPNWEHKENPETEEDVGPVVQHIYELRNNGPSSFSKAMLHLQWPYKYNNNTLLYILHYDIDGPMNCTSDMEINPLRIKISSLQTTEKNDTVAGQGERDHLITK
T2 sequence (P06756 891-1048 limits assumed): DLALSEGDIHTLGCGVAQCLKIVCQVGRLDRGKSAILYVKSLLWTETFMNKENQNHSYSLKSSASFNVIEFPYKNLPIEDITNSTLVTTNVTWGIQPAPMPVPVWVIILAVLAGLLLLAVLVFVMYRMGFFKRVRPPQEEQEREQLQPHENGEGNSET
T2 sequence (P05106 27-788): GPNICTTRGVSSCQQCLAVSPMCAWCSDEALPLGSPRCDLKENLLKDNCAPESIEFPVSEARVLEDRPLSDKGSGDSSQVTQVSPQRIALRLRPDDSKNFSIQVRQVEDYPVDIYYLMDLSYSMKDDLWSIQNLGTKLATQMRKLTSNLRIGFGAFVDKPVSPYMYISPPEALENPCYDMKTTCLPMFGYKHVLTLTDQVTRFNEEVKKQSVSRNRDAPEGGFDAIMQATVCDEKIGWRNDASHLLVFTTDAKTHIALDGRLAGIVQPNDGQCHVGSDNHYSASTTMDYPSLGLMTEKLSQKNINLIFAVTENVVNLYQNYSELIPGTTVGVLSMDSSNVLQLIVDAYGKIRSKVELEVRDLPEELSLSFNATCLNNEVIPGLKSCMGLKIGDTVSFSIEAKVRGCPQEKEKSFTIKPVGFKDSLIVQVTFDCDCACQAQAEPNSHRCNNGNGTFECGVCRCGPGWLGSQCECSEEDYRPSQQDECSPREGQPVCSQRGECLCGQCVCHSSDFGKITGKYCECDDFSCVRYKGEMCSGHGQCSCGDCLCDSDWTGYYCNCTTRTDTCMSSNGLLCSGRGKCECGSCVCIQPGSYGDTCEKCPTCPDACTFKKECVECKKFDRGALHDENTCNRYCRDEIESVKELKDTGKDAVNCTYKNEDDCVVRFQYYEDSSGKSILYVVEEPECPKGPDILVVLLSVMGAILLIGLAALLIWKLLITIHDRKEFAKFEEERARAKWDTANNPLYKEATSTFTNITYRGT

On to `O=C(O)CN(CCN(CC(=O)O)CC(=O)O)CC(=O)O` [EDTA, reference compound], for which the “effect of EDTA on endothelial cell adhesion to Angptl3” value in data set [1] (EDTA 10 mM) is listed as “completely abolished”.

For the molecule “Ang2: epitope (gD)-tagged Tie2 ligand angiopoietin 2 [reference compound]”, the “binding to HMVEC” value in data set [2] is reported as “strongly bound”. Moreover, the “binding to Tie2” value in data set [3] is recorded as “Tie2 binding”.

B1: Ang1: epitope (gD)-tagged Tie2 ligand angiopoietin 1 (protein, listed as Homo sapiens)
chain: RDCADVYQAGFNKSGIYTIYINNMPEPKKVFCNMDVNGGGWTVIQHREDGSLDFQRGWKEYKMGFGNPSGEYWLGNEFIFAITSQRQYMLRIELMDWEGNRAYSQYDRFHIGNEKQNYRLYLKGHTGTAGKQSSLILHGADFSTKDADNDNCMCKCALMLTGGWWFDACGPSNLNGMFYTAGQNHGKLNGIKWHYFKGPSYSLRSTTMMIRPLDF
modifications: gD epitope tag
B1: the “binding to Tie2” value in [3] is listed as “Tie2 binding”.

B2: Angptl3: angiopoietin-like protein 3, native human sequence SEQ ID NO: 2; recombinant gD-tagged secreted glycoprotein (protein, listed as Homo sapiens)
chain: MFTIKLLLFIVPLVISSRIDQDNSSFDSLSPEPKSRFAMLDDVKILANGLLQLGHGLKDFVHKTKGQINDIFQKLNIFDQSFYDLSLQTSEIKEEEKELRRTTYKLQVKNEEVKNMSLELNSKLESLLEEKILLQQKVKYLEEQLTNLIQNQPETPEHPEVTSLKTFVEKQDNSIKDLLQTVEDQYKQLNQQHSQIKEIENQLRRTSIQEPTEISLSSKPRAPRTTPFLQLNEIRNVKHDGIPAECTTIYNRGEHTSGMYAIRPSNSQVFHVYCDVISGSPWTLIQHRIDGSQNFNETWENYKYGFGRLDGEFWLGLEKIYSIVKQSNYVLRIELEDWKDNKHYIEYSFYLGNHETNYTLHLVAITGNVPNAIPENKDLVFSTWDHKAKGHFNCPEGYSGGWWWHDECGENNLNGKYNKPRAKSKPERRRGLSWKSQNGRLYSIKSTKMLIHPTDSESFE
modifications: gD tag
notes: recombinant gD-tagged secreted glycoprotein
As for B2, the “induction of endothelial cell adhesion” value in data set [1] (increasing coating amounts of hAngptl3, within 4 hours) is given as “robust, dose-dependent adhesion”. Also, the “adherence of 293 cells expressing αvβ3 to Angptl3” value in data set [4] was “marked increased”. The hepatocyte adhesion result in data set [5] is “Coating-concentration dependent”. Moreover, in data set [6], the “binding to LFA1” value is recorded as “did not bind”. Also, the “binding to HMVEC after exposure of cells to hypoxia or VEGF” value in data set [2] (cells exposed to hypoxia or VEGF, data not shown) is recorded as “significantly increased”. Further, in data set [2], the “binding to HMVEC” value is given as “strongly bound”. Moreover, the “in vivo angiogenic response in rat cornea” value in [7] (500 ng in hydron pellet, alone, 5 days after pellet implantation) was “strong angiogenic response”. Also, the “angiogenic response compared to levels obtained for VEGF” value in data set [7] is reported as “comparable”. In addition, in data set [8], the “binding to Mac-1” value is on record as “did not bind”. Also, in [3], the “binding to Tie2” value is given as “did not bind”. For the same molecule, the “binding to Tie1” value in data set [9] is reported as “did not bind”.

B3: murine Angptl3: recombinant mouse Angptl3 overexpressed in CHO cells (protein, UniProt Q9R182 17-455, looked up)
Angiopoietin-related protein 3: SRVDPDLSSFDSAPSEPKSRFAMLDDVKILANGLLQLGHGLKDFVHKTKGQINDIFQKLNIFDQSFYDLSLRTNEIKEEEKELRRTTSTLQVKNEEVKNMSVELNSKLESLLEEKTALQHKVRALEEQLTNLILSPAGAQEHPEVTSLKSFVEQQDNSIRELLQSVEEQYKQLSQQHMQIKEIEKQLRKTGIQEPSENSLSSKSRAPRTTPPLQLNETENTEQDDLPADCSAVYNRGEHTSGVYTIKPRNSQGFNVYCDTQSGSPWTLIQHRKDGSQDFNETWENYEKGFGRLDGEFWLGLEKIYAIVQQSNYILRLELQDWKDSKHYVEYSFHLGSHETNYTLHVAEIAGNIPGALPEHTDLMFSTWNHRAKGQLYCPESYSGGWWWNDICGENNLNGKYNKPRTKSRPERRRGIYWRPQSRKLYAIKSSKMMLQPTT
For B3, the “potency in inducing angiogenesis compared to the recombinant human protein” value in data set [7] (500 ng each) is “slightly more potent”. The “angiogenic response compared to levels obtained for VEGF” value in data set [7] is recorded as “comparable”.

B4: ARP1: angiopoietin related protein 1, unable to bind Tie2, negative control (protein, UniProt O95841 24-491, looked up)
Angiopoietin-related protein 1: GQFKIKKINQRRYPRATDGKEEAKKCAYTFLVPEQRITGPICVNTKGQDASTIKDMITRMDLENLKDVLSRQKREIDVLQLVVDVDGNIVNEVKLLRKESRNMNSRVTQLYMQLLHEIIRKRDNSLELSQLENKILNVTTEMLKMATRYRELEVKYASLTDLVNNQSVMITLLEEQCLRIFSRQDTHVSPPLVQVVPQHIPNSQQYTPGLLGGNEIQRDPGYPRDLMPPPDLATSPTKSPFKIPPVTFINEGPFKDCQQAKEAGHSVSGIYMIKPENSNGPMQLWCENSLDPGGWTVIQKRTDGSVNFFRNWENYKKGFGNIDGEYWLGLENIYMLSNQDNYKLLIELEDWSDKKVYAEYSSFRLEPESEFYRLRLGTYQGNAGDSMMWHNGKQFTTLDRDKDMYAGNCAHFHKGGWWYNACAHSNLNGVWYRGGHYRSKHQDGIFWAEYRGGSYSLRAVQMMIKPID
Consider B4, for which the “binding to HMVEC” value in [2] is recorded as “no binding was observed”.
